Measured values from PMC9979977.

Target: Borna disease virus 1 (BoDV-1) phosphoprotein (Borna disease virus 1)
Experiment: SEC-MALS; SEC-MALLS, Superdex 200 10/300, 20°C, 20 mM HEPES pH 7.5, 150 mM NaCl, 5%(v/v) glycerol; protein applied at 1-4 mg/ml; no concentration dependence of the oligomerization

Borna disease virus 1 (BoDV-1) phosphoprotein (natural protein)
stoichiometry N: 4
